This is an account of results in patent US5558864A, “Humanized and chimeric anti-epidermal growth factor receptor monoclonal antibodies” (Merck Patent Gesellschaft Mit Beschrankter Haftung, dated 1996).

Experiment [1] relates to EGFR protein. The experiment in a line: Competition binding assay with biotinylated murine MAb 425 (cell supernatants). More on the design: species or system human. The conditions noted are these: unpurified COS cell supernatants; relative levels of binding, not accurate affinity. As to the method:
Murine MAb 425 was biotinylated using a correspondingly purchasable kit. ELISA plates were coated with an optimal dilution of the EGFR protein. Dilutions of the COS cell supernatants, in a volume of 50 μl, were mixed with 50 μl of the biotinylated murine MAb 425 (estimated by ELISA to be 1.75 μg/ml). Each COS cell supernatant was tested in duplicate. Plates were incubated at room temperature, overnight. Bound biotinylated murine MAb 425 was detected by the addition of a purchasable streptavidin horseradish peroxidase complex. A control with no competitor present allowed a value of percentage of inhibition or blocking to be calculated for each COS cell supernatant as follows: […]

Experiment [2] concerns EGF-receptor positive membranes (A431). Briefly: Competition of 125I-labelled EGF and antibodies for EGF-receptor, SPA (Example 12). In kind it is binding, human. The conditions noted are these: purified antibodies, 125I-EGF, FIG. 11. As to the method:
Different probes of purified murine, chimeric and reshaped MAbs 425 were tested for their potency to compete with EGF regarding their binding to EGFR. The test was performed by competing ^125 I-labelled EGF (Amersham Corp., GB) and various antibodies for binding to EGF-receptor positive membranes (A431). The test system is based on SPA technology (Amersham).

The test system of experiment [3] is EGFR solubilized from A431 membranes. Briefly: Competitive binding of purified antibodies against biotin-labelled MAb 425 (Example 11). Further details: species or system human. The conditions noted are these: competition with biotin-labelled MAb 425, inhibition curves FIG. 10. The method, then: Biotin-labelled MAb 425 was Used to compete with unlabelled MAb 425 or derivates for binding to EGFR. Biotin-labelling occurred according to standard methods. EGFR was solubilized from A431 membranes by standard methods. A431 cells were commercially purchased. Detection was done after incubation with POD-conjugated streptavidin and substrate.

The test system of experiment [4] is EGFR protein. The experiment in a line: ELISA for antigen binding to EGFR. Particulars: transfected cell supernatants, detection with anti-human IgG; VH versions co-transfected with RVL a425, ranked: highest > followed by > then followed by > low > never detectable. As to the method: Human IgG present in COS cell supernatants was detected by ELISA: In the ELISA assay for human IgG, 96-well plates were coated with goat anti-human IgG (whole molecule) and human IgG in the samples that bound to the plates was detected using alkaline phosphatase-conjugated goat anti-human IgG (gamma-chain specific). Purchasable purified human IgG was used as a standard. Binding to the antigen recognized by MAb 425 was determined in a second ELISA. Plates were coated with an EGFR protein preparation (obtainable, for example, according to Rodeck et al., 1980) and antibodies binding to EGFR were detected using either an anti-human IgG (gamma-chain specific) peroxidase conjugate (for chimeric and reshaped human antibodies) or an anti-mouse IgG (whole molecule) peroxidase conjugate (for the mouse MAb 425 antibody) (both conjugates supplied by Sigma). Purified murine MAb 425 was used as a standard.

Experiment [5] deals with epidermoid and colorectal carcinoma-derived cell lines. The conditions noted are these: in vitro; cited from earlier work.
In experiment [6] the test system is human epidermal growth factor receptor (EGFR). The conditions noted are these: cited from earlier work.
Experiment [7] deals with T1, EGFR protein preparation (epidermal growth factor receptor) (human, UniProt P00533). Briefly: competition ELISA on EGFR-coated plates, competitor biotinylated murine MAb 425 (FIG. 7, Panel B). For orientation: An ELISA detects its analyte on a solid surface through an enzyme-linked reagent.
The target of experiment [8] is T1, EGFR protein preparation (epidermal …). The experiment in a line: antigen-binding ELISA on EGFR protein, COS supernatants, with RVL a425 (FIG. 6).
Experiment [9] shares this target. Briefly: antigen-binding ELISA on EGFR protein, supernatant of co-transfected cells.
Experiment [10] shares this target. Briefly: antigen-binding ELISA on EGFR protein, cell supernatants (FIG. 8, Panel A).
The target is the same in experiment [11]. Briefly: antigen-binding ELISA on EGFR protein, COS supernatants (FIG. 6).
Experiment [12] shares this target. Briefly: antigen-binding ELISA on EGFR protein, cell supernatants.

Numbering of substitutions follows the chain as printed. Entries after “also recorded” stand apart in the source; their conditions may differ.

Turning to “Chimeric 425 antibody: mouse 425 VL and VH regions with human kappa and gamma-1 constant regions”, in experiment [1], the “competition with labelled mouse 425 antibody for binding to antigen (percent inhibition of binding, relative avidity)” value is “just slightly less than that obtained when unlabelled mouse 425 antibody is competed with labelled mouse 425 antibody”. The “potency to compete with EGF for binding to EGFR” value in [2] is “the same”. The “binding potency (avidity) to EGFR” value in experiment [3] is “similar”. The “binding to EGFR in antigen-binding ELISA” value in [4] was “binds well to EGFR protein”. Consider “MAb 425: murine monoclonal antibody raised against human A431 carcinoma cells, binds EGFR; hybridoma ATCC HB 9629 [reference compound]”, for which the “potency to compete with EGF for binding to EGFR” value in [2] is “the same; also recorded: nearly identical”. In addition, the tumor cell growth entry in experiment [5] is “suppress tumor cell growth”. For the same molecule, the “binding to EGFR epitope” value in experiment [6] is on record as “bind to a polypeptide epitope on the external domain of the human epidermal growth factor receptor (EGFR)”. In experiment [6] (low and high affinity EGFR sites), the “inhibition of EGF binding to EGFR” value is “inhibit the binding of epidermal growth factor (EGF) at both low and high affinity EGFR sites”. Besides, the “binding potency (avidity) to EGFR” value in [3] is “similar”.

B1: reshaped human 425 antibody with RVL a425 and RVH i425 (antibody, V domains shown)
VH: QVQLVQSGAEVKKPGASVKVSCKASGYTFTSHWMHWVRQAPGQGLEWVGEFNPSNGRTNYNEKFKSKATMTVDTSTNTAYMELSSLRSEDTAVYYCASRDYDYDGRYFDYWGQGTLVTVSS
VL: DIQMTQSPSSLSASVGDRVTITCSASSSVTYMYWYQQKPGKAPKLLIYDTSNLASGVPSRFSGSGSGTDFTFTISSLQPEDIATYYCQQWSSHIFTFGQGTKVEIK
B1: the binding result in [7] is “binds”.

B2: reshaped human 425 antibody with RVL a425 and RVH c425 (antibody, V domains shown)
VH: B1 VH with T30S
VL: B1 VL
For B2, the binding result in experiment [8] is “binds”.

B3: antibody with reshaped human 425 light chain version a and chimeric 425 heavy chain (antibody, V domains shown)
VH: QVQLQQPGAELVKPGASVKLSCKASGYTFTSHWMHWVKQRAGQGLEWIGEFNPSNGRTNYNEKFKSKATLTVDKSSSTAYMQLSSLTSEDSAVYYCASRDYDYDGRYFDYWGQGTTLTVSS
VL: B1 VL
Consider B3, for which the binding result in experiment [9] is given as “binds”.

B4: reshaped human 425 antibody with RVL a425 and RVH b425 (antibody, V domains shown)
VH: B1 VH with T30S, K67R, A68V
VL: B1 VL
For B4, in experiment [8], the binding result was “binds”.

B5: reshaped human 425 antibody with RVL a425 and RVH a425 (antibody, V domains shown)
VH: B1 VH with T30S, K67R, A68V, V72L
VL: B1 VL
In the case of B5, the binding result in [9] is “no binding”.

B6: reshaped human 425 antibody with RVL b425 and RVH c425 (antibody, V domains shown)
VH: B1 VH with T30S
VL: B1 VL with F70Y
Turning to B6, the binding result in experiment [10] is on record as “binds”.

B7: reshaped human 425 antibody with RVL a425 and RVH d425 (antibody, V domains shown)
VH: B1 VH with T30S, V48I, K67R, A68V, V72L
VL: B1 VL
With B7, in experiment [11], the binding result is “no binding”.

B8: reshaped human 425 antibody with RVL a425 and RVH f425 (antibody, V domains shown)
VH: B1 VH with T30S, V48I
VL: B1 VL
Turning to B8, the binding result in experiment [8] is on record as “binds”.

B9: reshaped human 425 antibody with RVL b425 and RVH b425 (antibody, V domains shown)
VH: B1 VH with T30S, K67R, A68V
VL: B1 VL with F70Y
With B9, in experiment [12], the binding result was “binds”.

B10: antibody with chimeric 425 light chain and reshaped human 425 heavy chain version a (antibody, V domains shown)
VH: B1 VH with T30S, K67R, A68V, V72L
VL: QIVLTQSPAIMSASPGEKVTMTCSASSSVTYMYWYQQKPGSSPRLLIYDTSNLASGVPVRFSGSGSGTSYSLTISRMEAEDAATYYCQQWSSHIFTFGSGTKLEIK
For B10, in experiment [9], the binding result is recorded as “no binding”.

B11: reshaped human 425 antibody with RVL a425 and RVH h425 (antibody, V domains shown)
VH: B1 VH with K67R, A68V
VL: B1 VL
B11: the binding result in experiment [8] is on record as “binds”.
